Changes are numbered by the printed parent chain. In names and notes the source's numbering stands. Where two headings read alike, the source gives them in different places. Values belong to the binder of their own block, whether it stands above or below them.
Key:
[1] = biological target: T1, rabbit skeletal muscle actin, pyrene-labelled, phalloidin-stabilized (rabbit, UniProt P68135 1-377, pyrene (labelled with pyrene-maleimide)); assay: other fluorescence titration
[2] = biological target: T1, rabbit skeletal muscle actin, …; assay: other fluorescence titration; remark: listed apart in the source

Kd [1]: 10 ± 1.8 nM | Kd [2]: 23.4 ± 2.5 nM
B1: wild-type human β-cardiac myosin short subfragment 1 (sS1) with C-terminal 6× His tag (complex)
chain 1: MGDSEMAVFGAAAPYLRKSEKERLEAQTRPFDLKKDVFVPDDKQEFVKAKIVSREGGKVTAETEYGKTVTVKEDQVMQQNPPKFDKIEDMAMLTFLHEPAVLYNLKDRYGSWMIYTYSGLFCVTVNPYKWLPVYTPEVVAAYRGKKRSEAPPHIFSISDNAYQYMLTDRENQSILITGESGAGKTVNTKRVIQYFAVIAAIGDRSKKDQSPGKGTLEDQIIQANPALEAFGNAKTVRNDNSSRFGKFIRIHFGATGKLASADIETYLLEKSRVIFQLKAERDYHIFYQILSNKKPELLDMLLITNNPYDYAFISQGETTVASIDDAEELMATDNAFDVLGFTSEEKNSMYKLTGAIMHFGNMKFKLKQREEQAEPDGTEEADKSAYLMGLNSADLLKGLCHPRVKVGNEYVTKGQNVQQVIYATGALAKAVYERMFNWMVTRINATLETKQPRQYFIGVLDIAGFEIFDFNSFEQLCINFTNEKLQQFFNHHMFVLEQEEYKKEGIEWTFIDFGMDLQACIDLIEKPMGIMSILEEECMFPKATDMTFKAKLFDNHLGKSANFQKPRNIKGKPEAHFSLIHYAGIVDYNIIGWLQKNKDPLNETVVGLYQKSSLKLLSTLFANYAGADAPIEKGKGKAKKGSSFQTVSALHRENLNKLMTNLRSTHPHFVRCIIPNETKSPGVMDNPLVMHQLRCNGVLEGIRICRKGFPNRILYGDFRQRYRILNPAAIPEGQFIDSRKGAEKLLSSLDIDHNQYKFGHTKVFFKAGLLGLLEEMRDERLSRIITRIQAQSRGVLARMEYKKLLERR
chain 2: not shown

Kd [1]: 19.7 ± 6.2 nM | Kd [2]: 63.2 ± 16.7 nM
B2: R403Q human β-cardiac myosin short subfragment 1 (sS1) with C-terminal 6× His tag (complex)
chain 1: B1 chain 1 with R403Q
chain 2: not shown

Reference: PMC4646805 (Science Advances, 2015)
